Read-outs that look alike come from different tables or passages of the source. Non-standard residues stand in square brackets, D forms with d. Primed or numbered codes have the meaning given here. No end group written: not given here. APC = aminopyrrolidine carboxylic acid (2-aminopyrrolidine-4-carboxylic acid); ACPC(3) = 2-aminocyclopentane carboxylic acid (cyclic beta residue); ACPC″ = 2-aminocyclopentane carboxylic acid (X); ACPC = 2-aminocyclopentane carboxylic acid; hArg = N=C(N)NCCCC[C@H](N)C(=O)O; β3hE = N[C@@H](CCC(=O)O)CC(=O)O; β3hQ = NC(=O)CC[C@H](N)CC(=O)O; β3hD = NC(CC(=O)O)CC(=O)O; β3hS = N[C@@H](CO)CC(=O)O; β3hA = C[C@H](N)CC(=O)O; Aib = CC(C)(N)C(=O)O
B1: β3Ala(1) PTH(1-34) (peptide)
peptide: [β3hA]VSEIQLMHNLGKHLNSMERVEWLRKKLQDVHNF-NH2
modifications: N-terminus assumed
SMILES: CC[C@H](C)[C@H](NC(=O)[C@H](CCC(=O)O)NC(=O)[C@H](CO)NC(=O)[C@@H](NC(=O)C[C@H](C)N)C(C)C)C(=O)N[C@@H](CCC(N)=O)C(=O)N[C@@H](CC(C)C)C(=O)N[C@@H](CCSC)C(=O)N[C@@H](Cc1c[nH]cn1)C(=O)N[C@@H](CC(N)=O)C(=O)N[C@@H](CC(C)C)C(=O)NCC(=O)N[C@@H](CCCCN)C(=O)N[C@@H](Cc1c[nH]cn1)C(=O)N[C@@H](CC(C)C)C(=O)N[C@@H](CC(N)=O)C(=O)N[C@@H](CO)C(=O)N[C@@H](CCSC)C(=O)N[C@@H](CCC(=O)O)C(=O)N[C@@H](CCCNC(=N)N)C(=O)N[C@H](C(=O)N[C@@H](CCC(=O)O)C(=O)N[C@@H](Cc1c[nH]c2ccccc12)C(=O)N[C@@H](CC(C)C)C(=O)N[C@@H](CCCNC(=N)N)C(=O)N[C@@H](CCCCN)C(=O)N[C@@H](CCCCN)C(=O)N[C@@H](CC(C)C)C(=O)N[C@@H](CCC(N)=O)C(=O)N[C@@H](CC(=O)O)C(=O)N[C@H](C(=O)N[C@@H](Cc1c[nH]cn1)C(=O)N[C@@H](CC(N)=O)C(=O)N[C@@H](Cc1ccccc1)C(N)=O)C(C)C)C(C)C
B2: M-PTH(1-34) (peptide)
peptide: AVAEIQLMHQ[hArg]AKWLNSMRRVEWLRKKLQDVHNF-NH2
modifications: N-terminus assumed
SMILES: CC[C@H](C)[C@H](NC(=O)[C@H](CCC(=O)O)NC(=O)[C@H](C)NC(=O)[C@@H](NC(=O)[C@H](C)N)C(C)C)C(=O)N[C@@H](CCC(N)=O)C(=O)N[C@@H](CC(C)C)C(=O)N[C@@H](CCSC)C(=O)N[C@@H](Cc1c[nH]cn1)C(=O)N[C@@H](CCC(N)=O)C(=O)N[C@@H](CCCCNC(=N)N)C(=O)N[C@@H](C)C(=O)N[C@@H](CCCCN)C(=O)N[C@@H](Cc1c[nH]c2ccccc12)C(=O)N[C@@H](CC(C)C)C(=O)N[C@@H](CC(N)=O)C(=O)N[C@@H](CO)C(=O)N[C@@H](CCSC)C(=O)N[C@@H](CCCNC(=N)N)C(=O)N[C@@H](CCCNC(=N)N)C(=O)N[C@H](C(=O)N[C@@H](CCC(=O)O)C(=O)N[C@@H](Cc1c[nH]c2ccccc12)C(=O)N[C@@H](CC(C)C)C(=O)N[C@@H](CCCNC(=N)N)C(=O)N[C@@H](CCCCN)C(=O)N[C@@H](CCCCN)C(=O)N[C@@H](CC(C)C)C(=O)N[C@@H](CCC(N)=O)C(=O)N[C@@H](CC(=O)O)C(=O)N[C@H](C(=O)N[C@@H](Cc1c[nH]cn1)C(=O)N[C@@H](CC(N)=O)C(=O)N[C@@H](Cc1ccccc1)C(N)=O)C(C)C)C(C)C
B3: A3 (peptide)
peptide: SVSEIQLMHNLGKHLNSMERVEWLRKKLQDVHNF
modifications: C-terminal amide; three β3 residues with native side chains, αααβ pattern; bold marks lost in text (inferred 23, 27, 31)

Experiments:
Test in all cases: cell-based or functional assay
[1] = molecular target: T1, rat parathyroid hormone receptor 1, wild-type (rPTHR-1) (rat, UniProt P25961 27-591)
T1 sequence (looked up): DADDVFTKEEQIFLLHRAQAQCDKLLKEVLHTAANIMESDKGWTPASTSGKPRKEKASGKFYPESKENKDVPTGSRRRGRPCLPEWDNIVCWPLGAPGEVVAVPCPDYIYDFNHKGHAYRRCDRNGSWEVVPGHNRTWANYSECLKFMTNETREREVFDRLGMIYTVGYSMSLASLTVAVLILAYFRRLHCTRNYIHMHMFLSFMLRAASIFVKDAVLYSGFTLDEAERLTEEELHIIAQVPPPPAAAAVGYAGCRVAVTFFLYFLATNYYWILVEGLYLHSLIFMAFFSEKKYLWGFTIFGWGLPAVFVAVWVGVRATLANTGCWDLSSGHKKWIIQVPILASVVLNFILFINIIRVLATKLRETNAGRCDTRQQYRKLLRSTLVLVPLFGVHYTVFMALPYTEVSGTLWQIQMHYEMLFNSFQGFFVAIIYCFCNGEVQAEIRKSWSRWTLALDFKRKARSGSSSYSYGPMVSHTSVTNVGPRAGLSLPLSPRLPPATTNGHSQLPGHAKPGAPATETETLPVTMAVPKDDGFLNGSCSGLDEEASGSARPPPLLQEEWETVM

[2] = molecular target: T1, rat parathyroid hormone receptor 1, …; parameters: AUC-on / AUC-washout: unit not given beside the values
[3] = molecular target: T1, rat parathyroid hormone receptor 1, …; remark: listed apart in the source
[4] = molecular target: T2, human parathyroid hormone receptor 1, wild-type (hPTHR-1) (human, UniProt Q03431 27-593)
T2 sequence (looked up): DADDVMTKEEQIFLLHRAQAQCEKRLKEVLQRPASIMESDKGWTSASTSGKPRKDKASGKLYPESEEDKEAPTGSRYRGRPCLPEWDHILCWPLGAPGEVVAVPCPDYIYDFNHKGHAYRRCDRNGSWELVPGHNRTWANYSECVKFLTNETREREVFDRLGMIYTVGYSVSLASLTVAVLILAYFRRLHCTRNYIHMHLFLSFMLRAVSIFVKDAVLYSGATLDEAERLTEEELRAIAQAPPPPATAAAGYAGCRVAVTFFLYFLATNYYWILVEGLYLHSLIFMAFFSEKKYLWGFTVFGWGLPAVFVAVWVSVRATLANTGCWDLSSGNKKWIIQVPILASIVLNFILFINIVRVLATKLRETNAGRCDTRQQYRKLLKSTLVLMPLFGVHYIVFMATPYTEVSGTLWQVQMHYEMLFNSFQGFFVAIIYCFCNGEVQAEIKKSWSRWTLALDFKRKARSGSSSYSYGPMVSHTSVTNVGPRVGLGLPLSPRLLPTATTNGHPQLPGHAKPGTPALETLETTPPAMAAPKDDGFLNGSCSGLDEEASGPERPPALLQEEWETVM

delNT PTHR1 = molecular target: T3, delNT PTHR1 (human, UniProt Q03431 27-593)
T3 sequence (looked up): T2 sequence (looked up)

[5] = molecular target: T4, PTHR-1 (species and cells not stated for the assay) (Homo sapiens (Human), UniProt Q03431 27-593)
T4 sequence: T2 sequence (looked up)

[6] = molecular target: T2, human parathyroid hormone receptor 1, …; remark: listed apart in the source
[7] = molecular target: T4, PTHR-1 (species and cells not stated …); remark: listed apart in the source
[8] = molecular target: T2, human parathyroid hormone receptor 1, …; remark: listed apart in the source
[9] = molecular target: T2, human parathyroid hormone receptor 1, …; remark: listed apart in the source

Binder | Fold PTH [4] [fold] | cAMP EC50 [4] [nM] | Fold PTH (delNT PTHR1) [fold] | cAMP EC50 (delNT PTHR1) [nM] | also measured
SVSEIQLMHNLGKHLNSMERVEWLRKKLQDVHNF-NH2 [PTH(1-34)] | – | – | – | – | cAMP Max [1]: 65 cps × 10-3; AUC-on [2]: 92000; AUC-washout [2]: 100000; cAMP Max [3]: 1 relative to PTH(1-34)
B1 | 2.2 | 0.2 | 0.4 | 25 | –
[β3hS]VSEIQLMHNLGKHLNSMERVEWLRKKLQDVHNF-NH2 [β3Ser(1) PTH(1-34)] | – | 0.06 | – | – | –
[ACPC]VSEIQLMHNLGKHLNSMERVEWLRKKLQDVHNF-NH2 [ACPC(1) PTH(1-34)] | 1.6 | 0.15 | 8 | 500 | –
S[ACPC]SEIQLMHNLGKHLNSMERVEWLRKKLQDVHNF-NH2 [ACPC(2) PTH(1-34)] | 3 | 0.27 | 170 | 11000 | –
SV[ACPC]EIQLMHNLGKHLNSMERVEWLRKKLQDVHNF-NH2 [ACPC(3) PTH(1-34)] | 126 | 11.5 | 130 | 7800 | –
SVSE[ACPC]QLMHNLGKHLNSMERVEWLRKKLQDVHNF-NH2 [ACPC(5) PTH(1-34)] | 1.9 | 0.17 | 65 | 4100 | –
SVSEI[β3hQ]LMHNLGKHLNSMERVEWLRKKLQDVHNF-NH2 [β3Gln(6) PTH(1-34)] | – | 14.6 | – | 6700 | –
SVSEI[ACPC]LMHNLGKHLNSMERVEWLRKKLQDVHNF-NH2 [ACPC(6) PTH(1-34)] | 3.7 | 0.34 | 360 | 22000 | –
SVSEIQL[ACPC]HNLGKHLNSMERVEWLRKKLQDVHNF-NH2 [ACPC(8) PTH(1-34)] | 107 | 9.74 | 480 | 29000 | –
B2 | – | – | – | – | AUC Ratio [2]: 14.8; AUC-on [2]: 43000; AUC-washout [2]: 640000; Fold PTH [5]: 4.2 fold; cAMP EC50 [5]: 0.34 nM
H[ACPC(3)]V[Aib]E[ACPC(3)]Q[ACPC(3)]MHQ[hArg]AK[ACPC(3)]LNS[ACPC(3)]RRV[β3hE]WLR[APC]KLQ[β3hD]VHN[ACPC(3)]-NH2 (not fully specified) [M-X1,5,7-CycD6] | – | – | – | – | Fold PTH [5]: 3.8 fold; cAMP EC50 [5]: 0.31 nM
[ACPC″]V[Aib]E[ACPC″]Q[ACPC″]MHQ[hArg]AK[ACPC″]LNS[ACPC″]RRV[APC]WLR[APC]KLQ[ACPC″]VHN[ACPC″]-NH2 [M-X1,5,7-FcycD6] | – | – | – | – | Fold PTH [5]: 9.5 fold; cAMP EC50 [5]: 0.78 nM
AVSEHQLLHDKGK[ACPC]IQD[ACPC]RRR[APC]LLE[APC]LL[Aib][ACPC]LHT[ACPC]-NH2 [CycD6 BA058] | – | – | – | – | cAMP EC50 [6]: 0.18 nM
[ACPC]VSEHQ[ACPC]LHDKGKSIQDLRRRELLEKLL[Aib]KLHTA-NH2 [BA058 ACPC(1,7)] | – | – | – | – | cAMP EC50 [6]: 4.69 nM
[ACPC]VSEHQ[ACPC]LHDKGKSIQDLRRRELLEKLL[Aib]KLHT[ACPC]-NH2 (not fully specified; also: D6 β3 residues, positions not shown (marking lost)) [D6 BA058 ACPC(1,7)] | – | – | – | – | cAMP EC50 [6]: 141 nM
[ACPC]VSEHQ[ACPC]LHDKGK[ACPC]IQD[ACPC]RRR[APC]LLE[APC]LL[Aib][ACPC]LHT[ACPC]-NH2 [CycD6 BA058 ACPC(1,7)] | – | – | – | – | cAMP EC50 [6]: 18.9 nM
[ACPC]VSE[ACPC]Q[ACPC]LHDKGKSIQDLRRRELLEKLL[Aib]KLHTA-NH2 [BA058 ACPC(1,5,7)] | – | – | – | – | cAMP EC50 [6]: 0.26 nM
[ACPC]VSE[ACPC]Q[ACPC]LHDKGK[ACPC]IQD[ACPC]RRR[APC]LLE[APC]LL[Aib][ACPC]LHT[ACPC]-NH2 [CycD6 BA058 ACPC(1,5,7)] | – | – | – | – | cAMP EC50 [6]: 0.65 nM
LMHNLGKHLNSMERVEWLRKKLQDVHNF-NH2 [hPTH(7-34)] | – | – | – | – | EC50(+)inhibitor/EC50(-)inhibitor [7]: 1.6 ratio; EC50 of PTH(1-34) signaling with 1 µM inhibitor [7]: 0.25 nM
B3 | – | – | – | – | cAMP EC50 [8]: 0.29 nM; cAMP Max [1]: 74 cps × 10-3; cAMP EC50 [9]: 0.29 nM
